Patent US20030103975A1 (published 2003)

Target: human fibronectin (BD Biosciences) (human, UniProt P02751-8 32-2296, limits assumed)
Assay: solid-phase saturation binding ELISA: coated fibronectin at varying concentrations, soluble integrin at 5 ng/µl, detected with LM609
Procedure: FIGS. 3A-D. Wells of a 96-well plate were coated with varying concentrations of G⁹¹⁹⁻¹²⁰⁷, G⁹¹⁹⁻¹⁰¹⁸ and G¹⁰¹⁶⁻¹²⁰⁷ (A) or fibronectin (B). αvβ3 integrin (5 ng/μl) was then added to, allowed to bind for 1 h at 37° C., and binding evaluated by ELISA using LM609 followed by a secondary antibody conjugated to alkaline phosphatase. […] is a competition binding curve. Soluble αvβ3 (5 ng/μl) was added to wells coated with G⁹¹⁹⁻¹²⁰⁷ in the presence of increasing concentrations of fibronectin at 37° C. […] In all studies, absorbance was measured at 405 nm. Each of the graphs is representative of at least three separate experiments.
ELISA Assays. Wells of 96-well non-tissue culture treated plates were coated with protein at varying concentrations for 18 h at 4° C. Each well was rinsed three times and blocked with 1% BSA in PBS for 1 h at 37° C. Soluble integrin heterodimers were diluted in binding buffer (25 mM Tris buffer, […], 1 mM MgCl2, 0.5 mM MnCl2, 0.05% BSA, pH 7.5) and added to each well for a final concentration of 5 ng/μl. After incubating for 90 min at 37° C. wells were rinsed three times in binding buffer and appropriate mouse monoclonal anti-integrin antibody was added for 1 h at 37° C. […] Absorbance at 405 nm was measured with a Vmax plate reader (Molecular Devices, Menlo Park, Calif.). Nonspecific binding was determined by the addition of 10 mM EDTA to binding buffer. […]

human fibronectin (BD Biosciences), sequence (P02751 other isoform, or with tags, fused parts or gaps limits assumed): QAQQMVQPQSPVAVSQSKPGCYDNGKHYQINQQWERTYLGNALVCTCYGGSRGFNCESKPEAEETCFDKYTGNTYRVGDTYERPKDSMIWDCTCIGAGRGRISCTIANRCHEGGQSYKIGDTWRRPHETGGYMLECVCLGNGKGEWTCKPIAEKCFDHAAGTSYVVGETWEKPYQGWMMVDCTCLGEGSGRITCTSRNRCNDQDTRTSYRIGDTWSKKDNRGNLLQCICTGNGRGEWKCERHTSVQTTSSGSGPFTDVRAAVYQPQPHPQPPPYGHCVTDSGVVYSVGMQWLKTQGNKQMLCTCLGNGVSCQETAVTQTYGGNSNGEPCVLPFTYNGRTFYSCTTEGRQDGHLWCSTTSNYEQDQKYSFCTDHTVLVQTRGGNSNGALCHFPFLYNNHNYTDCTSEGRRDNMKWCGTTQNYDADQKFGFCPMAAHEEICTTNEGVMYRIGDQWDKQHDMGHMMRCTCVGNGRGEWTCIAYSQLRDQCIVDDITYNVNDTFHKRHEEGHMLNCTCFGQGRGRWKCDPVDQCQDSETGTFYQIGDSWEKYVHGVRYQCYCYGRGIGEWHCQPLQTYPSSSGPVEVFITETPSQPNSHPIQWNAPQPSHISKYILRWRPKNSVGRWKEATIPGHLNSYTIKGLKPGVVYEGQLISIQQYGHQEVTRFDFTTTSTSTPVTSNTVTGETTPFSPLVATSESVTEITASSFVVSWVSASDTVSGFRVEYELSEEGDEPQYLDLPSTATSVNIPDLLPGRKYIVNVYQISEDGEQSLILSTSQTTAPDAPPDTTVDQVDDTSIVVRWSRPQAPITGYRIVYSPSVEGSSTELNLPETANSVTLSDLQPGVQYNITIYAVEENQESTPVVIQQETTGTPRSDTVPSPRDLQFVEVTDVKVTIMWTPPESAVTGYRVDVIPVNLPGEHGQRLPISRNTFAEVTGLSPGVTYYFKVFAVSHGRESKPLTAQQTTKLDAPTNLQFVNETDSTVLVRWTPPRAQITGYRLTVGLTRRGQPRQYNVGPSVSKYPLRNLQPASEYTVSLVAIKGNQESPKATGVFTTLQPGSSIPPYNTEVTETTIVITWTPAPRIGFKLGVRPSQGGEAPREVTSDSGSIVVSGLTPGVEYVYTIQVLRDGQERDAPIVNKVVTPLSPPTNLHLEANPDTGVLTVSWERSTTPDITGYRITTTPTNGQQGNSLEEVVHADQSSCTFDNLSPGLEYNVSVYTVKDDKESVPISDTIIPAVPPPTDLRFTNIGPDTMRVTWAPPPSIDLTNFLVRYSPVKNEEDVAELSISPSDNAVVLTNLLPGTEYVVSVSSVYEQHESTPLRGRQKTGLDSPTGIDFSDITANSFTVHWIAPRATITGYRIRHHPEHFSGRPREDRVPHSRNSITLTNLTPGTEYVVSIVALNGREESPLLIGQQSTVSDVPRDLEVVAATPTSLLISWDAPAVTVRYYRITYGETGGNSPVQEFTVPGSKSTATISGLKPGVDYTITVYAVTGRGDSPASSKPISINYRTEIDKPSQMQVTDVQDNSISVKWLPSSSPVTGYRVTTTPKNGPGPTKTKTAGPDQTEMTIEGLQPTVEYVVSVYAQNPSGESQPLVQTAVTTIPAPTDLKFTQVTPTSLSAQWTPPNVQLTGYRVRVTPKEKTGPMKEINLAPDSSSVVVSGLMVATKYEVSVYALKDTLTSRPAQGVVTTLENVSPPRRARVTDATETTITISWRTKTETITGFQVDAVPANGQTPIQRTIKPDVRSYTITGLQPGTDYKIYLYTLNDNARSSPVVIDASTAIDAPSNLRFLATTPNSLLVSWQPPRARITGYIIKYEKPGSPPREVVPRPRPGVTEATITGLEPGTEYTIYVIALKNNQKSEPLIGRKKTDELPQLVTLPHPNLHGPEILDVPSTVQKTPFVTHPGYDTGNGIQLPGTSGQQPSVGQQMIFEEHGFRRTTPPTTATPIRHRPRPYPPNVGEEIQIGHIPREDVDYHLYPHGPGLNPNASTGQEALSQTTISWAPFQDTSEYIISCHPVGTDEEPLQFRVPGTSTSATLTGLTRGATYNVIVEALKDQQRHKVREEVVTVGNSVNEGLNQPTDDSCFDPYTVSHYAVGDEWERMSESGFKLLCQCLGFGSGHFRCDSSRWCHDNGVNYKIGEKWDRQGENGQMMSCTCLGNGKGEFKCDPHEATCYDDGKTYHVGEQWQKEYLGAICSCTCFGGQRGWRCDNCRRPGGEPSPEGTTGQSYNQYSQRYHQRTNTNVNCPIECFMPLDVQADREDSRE

Kd: 15 nM
B1: soluble αvβ3 integrin heterodimer (Chemicon International) (receptor)
chain 1: FNLDVDSPAEYSGPEGSYFGFAVDFFVPSASSRMFLLVGAPKANTTQPGIVEGGQVLKCDWSSTRRCQPIEFDATGNRDYAKDDPLEFKSHQWFGASVRSKQDKILACAPLYHWRTEMKQEREPVGTCFLQDGTKTVEYAPCRSQDIDADGQGFCQGGFSIDFTKADRVLLGGPGSFYWQGQLISDQVAEIVSKYDPNVYSIKYNNQLATRTAQAIFDDSYLGYSVAVGDFNGDGIDDFVSGVPRAARTLGMVYIYDGKNMSSLYNFTGEQMAAYFGFSVAATDINGDDYADVFIGAPLFMDRGSDGKLQEVGQVSVSLQRASGDFQTTKLNGFEVFARFGSAIAPLGDLDQDGFNDIAIAAPYGGEDKKGIVYIFNGRSTGLNAVPSQILEGQWAARSMPPSFGYSMKGATDIDKNGYPDLIVGAFGVDRAILYRARPVITVNAGLEVYPSILNQDNKTCSLPGTALKVSCFNVRFCLKADGKGVLPRKLNFQVELLLDKLKQKGAIRRALFLYSRSPSHSKNMTISRGGLMQCEELIAYLRDESEFRDKLTPITIFMEYRLDYRTAADTTGLQPILNQFTPANISRQAHILLDCGEDNVCKPKLEVSVDSDQKKIYIGDDNPLTLIVKAQNQGEGAYEAELIVSIPLQADFIGVVRNNEALARLSCAFKTENQTRQVVCDLGNPMKAGTQLLAGLRFSVHQQSEMDTSVKFDLQIQSSNLFDKVSPVVSHKVDLAVLAAVEIRGVSSPDHVFLPIPNWEHKENPETEEDVGPVVQHIYELRNNGPSSFSKAMLHLQWPYKYNNNTLLYILHYDIDGPMNCTSDMEINPLRIKISSLQTTEKNDTVAGQGERDHLITKRDLALSEGDIHTLGCGVAQCLKIVCQVGRLDRGKSAILYVKSLLWTETFMNKENQNHSYSLKSSASFNVIEFPYKNLPIEDITNSTLVTTNVTWGIQPAPMPV
chain 2: GPNICTTRGVSSCQQCLAVSPMCAWCSDEALPLGSPRCDLKENLLKDNCAPESIEFPVSEARVLEDRPLSDKGSGDSSQVTQVSPQRIALRLRPDDSKNFSIQVRQVEDYPVDIYYLMDLSYSMKDDLWSIQNLGTKLATQMRKLTSNLRIGFGAFVDKPVSPYMYISPPEALENPCYDMKTTCLPMFGYKHVLTLTDQVTRFNEEVKKQSVSRNRDAPEGGFDAIMQATVCDEKIGWRNDASHLLVFTTDAKTHIALDGRLAGIVQPNDGQCHVGSDNHYSASTTMDYPSLGLMTEKLSQKNINLIFAVTENVVNLYQNYSELIPGTTVGVLSMDSSNVLQLIVDAYGKIRSKVELEVRDLPEELSLSFNATCLNNEVIPGLKSCMGLKIGDTVSFSIEAKVRGCPQEKEKSFTIKPVGFKDSLIVQVTFDCDCACQAQAEPNSHRCNNGNGTFECGVCRCGPGWLGSQCECSEEDYRPSQQDECSPREGQPVCSQRGECLCGQCVCHSSDFGKITGKYCECDDFSCVRYKGEMCSGHGQCSCGDCLCDSDWTGYYCNCTTRTDTCMSSNGLLCSGRGKCECGSCVCIQPGSYGDTCEKCPTCPDACTFKKECVECKKFDRGALHDENTCNRYCRDEIESVKELKDTGKDAVNCTYKNEDDCVVRFQYYEDSSGKSILYVVEEPECPKGPD
notes: Bought
